Laboratory results: patent US20240100176A1 (Eli Lilly, published 2024)

Assays:
[1] = target: T1, hexahistidine tagged human IL-4Rα ECD D66R (human, UniProt P24394 26-232); experiment: capture ELISA, His-tagged receptor mutant
T1 construct: also called D66R IL-4Rα; not shown: hexahistidine tag
Excerpt: Example 2d. […] Briefly, thirty surface amino acid residue substitutions were introduced individually into hexahistidine tagged human IL-4Rα extra cellular domain (ECD) as follows: K2D, E6R, K22D, P26R, T31R, F41A, L42G, L43G, E45R, E52R, G56R, D66R, A71R, Q82G, K87D, E94R, H107A, D108R, P124R, D125R, D143R, R148D, L155R, R160D, S164R, S168R, Q181R, P192R, K195D, or H197G. Each mutant protein having a single amino acid residue substitution as described above was transiently expressed in CHO cells and purified using standard immobilized metal affinity chromatography techniques. […] The plates were then washed 3 times with PBST and the exemplified human IL-4Rα antibody was added to the wells at a final concentration of 1 μg/mL in PBS-casein and incubated for 1 hour at room temperature. The plates were washed 3 times with PBST, the IL-4Rα mutant proteins were serially diluted 5-fold from 1 μg/mL for 3 points. in PBS-casein and added to the plate at 50 μL/well and incubated for 1 hour at room temperature. […] The plates were washed 3 times, TMB substrate (Pierce, Cat. #34028) was added per manufacturer instructions, the reaction was quenched with H₂SO₄, and absorbance was read at 450 nm on an ELISA plate reader.

[2] = target: T2, hexahistidine-tagged cynomolgus monkey IL-4Rα extracellular domain (cynomolgus monkey, UniProt P24394 26-231 (human entry)); experiment: competition MSD ELISA (solution equilibrium, 37 °C), apparent KD, mean of 3 experiments
T2 construct: also called cynomolgus monkey IL-4Rα ECD; not shown: hexahistidine tag
T2 chain: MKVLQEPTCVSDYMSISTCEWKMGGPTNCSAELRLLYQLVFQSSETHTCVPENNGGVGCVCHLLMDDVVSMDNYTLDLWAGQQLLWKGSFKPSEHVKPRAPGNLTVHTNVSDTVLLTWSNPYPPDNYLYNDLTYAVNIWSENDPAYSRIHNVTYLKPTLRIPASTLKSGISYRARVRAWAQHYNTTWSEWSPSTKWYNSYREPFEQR
Protocol: Example 3a. […] A 96-well multi-array plate (Meso Scale Diagnostics, Cat. #L15XA-3) was coated at 4° C. overnight with 0.5 μg/mL hexahistidine-tagged human or cynomolgus monkey IL-4Rα ECD in phosphate buffered saline (PBS). Following coating, plates were washed 10 times with 200 μL PBST (PBS with 0.05% Tween® 20) and blocked with 300 μL/well of PBS casein blocking buffer (Pierce, Cat. #37528) at 37° C. for 1 hour. Plates were then washed 10 times as above, and 50 μL of the preincubated antibody:IL-4Rα dilution series was transferred to the wells and incubated at 37° C. with 300 rpm shaking for […]. Plates were washed 10 times with PBST, 50 μL of 1 μg/mL anti-human antibody sulfo-tag 20 (Meso Scale Diagnostics, Cat. #R32AJ-1) was added to the plates for the assay of Table 7a, and anti-Human NHP Kappa Light chain SULFO-TAG 20 (Meso Scale Diagnostics, Cat #D20TF-6) was added to the plates for the assay of Table 7b, and plates were incubated at 37° C. with 300 rpm shaking for 30 minutes. Plates were washed 10 times with PBST, 150 μL/well of 1× Read Buffer T was added to the wells and analyzed on a SECTOR® Imager 6000 (Meso Scale Diagnostics) 15 min after buffer addition. The apparent KD is determined by fitting a sigmoidal curve to the electrochemiluminescence (ECL) response vs. log (soluble IL-4Rα concentration) using GraphPad Prism 9. Data is graphed with normalized ECL values.

B1: anti-human IL-4Rα antibody Ab1 (antibody, human IgG4 S228P, kappa)
heavy: QVQLVESGGGLVQPGGSLRLSCVASGFTFSHSSMNWVRQAPGKGLEWVSYISRATGAVYYADSVKGRFTISRDNAKNSLYLQMNSLRDEDTAVYYCAREPVFDYWGQGTLVTVSSASTKGPCVFPLAPCSRSTSESTAALGCLVKDYFPEPVTVSWNSGALTSGVHTFPAVLQSSGLYSLSSVVTVPSSSLGTKTYTCNVDHKPSNTKVDKRVESKYGPPCPPCPAPEFLGGPSVFLFPPKPKDTLMISRTPEVTCVVVDVSQEDPEVKFNWYVDGVEVHNAKTKPREEQFNSTYRVVSVLTVLHQDWLNGKEYKCKVSNKGLPSSIEKTISKAKGQPREPQVYTLPPSREEMTKNQVSLTCLVKGFYPSDICVEWESNGQPENNYKTTPPVLDSDGSFFLYSRLTVDKSRWQQGNVFSCSVMHEALHNHYTQKSLSLSLG
light: DIQMTQSPSAMSASVGDRVTITCRASQDISNYLAWFQQKPGKVPTRLIYAASSLQSGVPSRFSGSGSGTEFTLTISSLQPEDFATYYCLQWSSYPRTFGQGTKVEIKRTVAAPSVFIFPPSDEQLKSGTASVVCLLNNFYPREAKVQWKVDNALQSGNSQESVTEQDSKDSTYSLSSTLTLSKADYEKHKVYACEVTHQGLSSPVTKSFNRGEC
notes: human kappa light chain; also called anti-human IL-4Rα Ab1; unconjugated Ab1
binding result [1]: no binding (tested: 1 µg/mL)

B2: anti-human IL-4Rα Ab1 GC conjugate of Example 1b (n=4) (antibody, human IgG4 S228P, kappa)
heavy: QVQLVESGGGLVQPGGSLRLSCVASGFTFSHSSMNWVRQAPGKGLEWVSYISRATGAVYYADSVKGRFTISRDNAKNSLYLQMNSLRDEDTAVYYCAREPVFDYWGQGTLVTVSSASTKGPCVFPLAPCSRSTSESTAALGCLVKDYFPEPVTVSWNSGALTSGVHTFPAVLQSSGLYSLSSVVTVPSSSLGTKTYTCNVDHKPSNTKVDKRVESKYGPPCPPCPAPEFLGGPSVFLFPPKPKDTLMISRTPEVTCVVVDVSQEDPEVKFNWYVDGVEVHNAKTKPREEQFNSTYRVVSVLTVLHQDWLNGKEYKCKVSNKGLPSSIEKTISKAKGQPREPQVYTLPPSREEMTKNQVSLTCLVKGFYPSDICVEWESNGQPENNYKTTPPVLDSDGSFFLYSRLTVDKSRWQQGNVFSCSVMHEALHNHYTQKSLSLSLG
light: DIQMTQSPSAMSASVGDRVTITCRASQDISNYLAWFQQKPGKVPTRLIYAASSLQSGVPSRFSGSGSGTEFTLTISSLQPEDFATYYCLQWSSYPRTFGQGTKVEIKRTVAAPSVFIFPPSDEQLKSGTASVVCLLNNFYPREAKVQWKVDNALQSGNSQESVTEQDSKDSTYSLSSTLTLSKADYEKHKVYACEVTHQGLSSPVTKSFNRGEC
modifications: glucocorticoid receptor agonist payload-linker (GC-L, Preparation 8) conjugated to the engineered cysteines at the 124 and 378 position of the heavy chain (EU numbering); n is 4 (average DAR 4.17 by RP-HPLC, 3.85 by TOF MS)
Kd [2]: 0.0458 nM
